US20180030149A1 (AVEO PHARMACEUTICALS, published 2018)

Legend:
human ErbB3 [1] = molecular target: T1, human ErbB3 (human, UniProt P21860 20-1342); assay: cell-based or functional assay
human ErbB3 [2] = molecular target: T1, human ErbB3; assay: cell-based or functional assay; remark: listed apart in the source
[3] = molecular target: T2, recombinant human ErbB3/Fc fusion protein (human, UniProt P21860 20-643); assay: SPR Biacore T100, 25 C; antibody captured on anti-mouse IgG, rhErbB3-Fc injected
T2 construct: Bought (R&D Systems, Cat. No. 348-RB); the NRG1-α1 assay names Cat. No. 4518-RB instead; also called rhErbB3-Fc; rhErbB3/Fc; not shown: Fc portion of the bought fusion protein
Method: Rabbit anti-mouse IgGs (Biacore, Cat. No. BR-1008-38) were immobilized on carboxymethylated dextran CM4 sensor chips (Biacore, Cat. No. BR-1005-34) by amine coupling (BIAcore, Cat. No. BR-1000-50) using a standard coupling protocol according to vendor's instructions. The analyses were performed at 25° C., using PBS (Invitrogen, Cat. No. 14040-133) containing 0.05% surfactant P20 (Biacore, Cat. No. BR-1000-54) as running buffer.
The antibodies were captured in individual flow cells at a flow rate of 10 μl/minute. Injection time was varied for each antibody to yield an Rₘₐₓ between 30 and 60 RU. […] The dissociation phase was monitored for up to 3600 seconds. The surface was then regenerated with two 60-seconds injection of 10 mM Glycine-HCl, pH 1.7 (made from Glycine pH 1.5 (Biacore, Cat. No. BR-1003-54) and pH 2.0 (Biacore, Cat. No. BR-1003-55)) at a flow rate of […].
(§1) Kinetic parameters were determined using the kinetic function of the BIAevaluation software (Biacore) with double reference subtraction. Kinetic parameters for each antibody, kₐ (association rate constant), kd (dissociation rate constant) and KD (equilibrium dissociation constant) were determined.

[4] = molecular target: T3, recombinant human ErbB3 monomeric protein (cleaved rhErbB3) (human, UniProt P21860 20-643, limits assumed); assay: SPR Biacore 37 C; supernatant antibody captured on anti-human Fc, cleaved rhErbB3 injected
T3 construct: Monomer made by protease cleavage of the Fc fusion; also called Monomeric ErbB3
Method: (§2) The analyses were performed at 37° C. using PBS (Invitrogen, Catalog No. 14040-133) containing 0.05% surfactant P20 (Biacore, Catalog No. BR-1000-54) as running buffer.
(§3) The antibodies were captured in individual flow cells at a flow rate of […]. Injection time was varied for each antibody to yield an Rₘₐₓ between 30 and 60 RU. […] The dissociation phase was monitored for up to 1200 seconds. The surface was then regenerated with two 60 second injections of Glycine pH 2.25 (made from Glycine pH 2.0 (Biacore, Catalog No. BR-1003-55) and pH 2.5 (Biacore, Catalog No. BR-1003-56)) at […].
as §1

[5] = molecular target: T3, recombinant human ErbB3 monomeric …; assay: SPR Biacore 37 C; purified antibody captured on anti-human Fc, cleaved rhErbB3 0.3125-5.0 nM
Method: as §2, §3
The binding affinities and kinetics of certain purified monoclonal antibodies were also determined. To further characterize certain antibodies, the surface plasmon resonance experiments described above were conducted using concentrations of cleaved rhErbB3 between 0.3125 nM and 5.0 nM (a 2-fold serial dilution).

Row | Binder | Kd [4] | koff [4] | kon [4] | also measured
1 | 11G01 (antibody, mouse IgG1, kappa, V domains shown, Murine IgG1/kappa, from hybridoma; also called anti-hErbB3 monoclonal antibody 11G01) VH: QVQLQQSDAELVKPGASVKISCKVSGYTFTDHIIHWMKQRPEQGLEWIGYIYPRDGYIKYNEKFKGKATLTADKSSSTAYMQVNSLTSEDSAVYFCARGYYYAMDYWGQGTSVTVSS VL: DVLMTQTPLSLPVSLGDQASISCRSSQSIVHSIGNTYLEWYLQKPGQSPKLLIYKVSNRFSGVPERFSGSGSGTDFTLKISRVEAEDLGVYYCFQGSHVPFTFGSGTKLEIKR |  |  |  | inhibition of NRG1-β1 induced phosphorylation of Akt in MCF7 and DU145 cells (ELISA) (human ErbB3 [1]): ≥ 80%; inhibition of NRG1-β1 induced phosphorylation of ErbB3 in SKBR-3 cells (ELISA, 5 µg/ml antibody) (human ErbB3 [1]): ≥ 50%; IC50, NRG1-β1 dependent proliferation of MCF7 cells (MTT) (human ErbB3 [2]): 1.98 nM; Kd [3]: 0.091 nM; koff [3]: 2.2e-05 s⁻¹; kon [3]: 270000 M⁻¹ s⁻¹
2 | Sh24C05-49 (antibody, human IgG1, kappa, V domains shown, Humanized, human IgG1/kappa) VH: QVQLVESGGGLVKPGGSLRLSCAASGFTFSDYAMSWIRQAPGKGLEWVSTISDGGTYTYYPDNVKGRFTISRDNAKNSLYLQMNSLRAEDTAVYYCAREWGDYDGFDYWGQGTLVTVSS VL: DIQMTQSPSSLSASVGDRVTITCRASQEISGYLSWYQQKPGKAPKLLIYAASTLDSGVPSRFSGSGSGTDFTLTISSLQPEDFATYYCLQYDSYPYTFGQGTKLEIKR | 0.416 nM | 0.0017 s⁻¹ | 4.08e+06 M⁻¹ s⁻¹ | 
3 | Sh24C05-43 (antibody, human IgG1, kappa, V domains shown, Humanized, human IgG1/kappa) VH: QVQLVESGGGLVKPGGSLRLSCAASGFTFSDYAMSWIRQAPGKGLEWVSTISDGGTYTYYPDNVKGRFTISRDNAKNSLYLQMNSLRAEDTAVYYCAREWGDYDGFDYWGQGTLVTVSS VL: DIQLTQSPSFLSASVGDRVTITCRASQEISGYLSWYQQKPGKAPKLLIYAASTLDSGVPSRFSGSGSGTEFTLTISSLQPEDFATYYCLQYDSYPYTFGQGTKLEIKR | 0.582 nM | 0.00358 s⁻¹ | 6.16e+06 M⁻¹ s⁻¹ | 
4 | Sh24C05-47 (antibody, human IgG1, kappa, V domains shown, Humanized, human IgG1/kappa) VH: QVQLVESGGGVVQPGRSLRLSCAASGFTFSDYAMSWVRQAPGKGLEWVATISDGGTYTYYPDNVKGRFTISRDNSKNTLYLQMSSLRAEDTAVYYCAREWGDYDGFDYWGQGTLVTVSS VL: DIQMTQSPSSLSASVGDRVTITCRASQEISGYLSWYQQKPGKAPKLLIYAASTLDSGVPSRFSGSGSGTDFTLTISSLQPEDFATYYCLQYDSYPYTFGQGTKLEIKR | 0.553 nM | 0.00441 s⁻¹ | 7.98e+06 M⁻¹ s⁻¹ | 
5 | Sh24C05-42 (antibody, human IgG1, kappa, Humanized, human IgG1/kappa) heavy: not shown light: DIQLTQSPSFLSASVGDRVTITCRASQEISGYLSWYQQKPGKAPKLLIYAASTLDSGVPSRFSGSGSGTEFTLTISSLQPEDFATYYCLQYDSYPYTFGQGTKLEIKRTVAAPSVFIFPPSDEQLKSGTASVVCLLNNFYPREAKVQWKVDNALQSGNSQESVTEQDSKDSTYSLSSTLTLSKADYEKHKVYACEVTHQGLSSPVTKSFNRGEC | 0.927 nM | 0.00682 s⁻¹ | 7.35e+06 M⁻¹ s⁻¹ | 
6 | Sh24C05-44 (antibody, human IgG1, kappa, Humanized, human IgG1/kappa) heavy: not shown light: DIQMTQSPSSLSASVGDRVTITCRASQEISGYLSWYQQKPGKAPKLLIYAASTLDSGVPSRFSGSGSGTDFTLTISSLQPEDFATYYCLQYDSYPYTFGQGTKLEIKRTVAAPSVFIFPPSDEQLKSGTASVVCLLNNFYPREAKVQWKVDNALQSGNSQESVTEQDSKDSTYSLSSTLTLSKADYEKHKVYACEVTHQGLSSPVTKSFNRGEC | 0.644 nM | 0.00512 s⁻¹ | 7.96e+06 M⁻¹ s⁻¹ | 
7 | Sh24C05-48 (antibody, human IgG1, kappa, Humanized, human IgG1/kappa) heavy: not shown light: DIQMTQSPSSLSASVGDRVTITCRASQEISGYLSWYQQKPGKAPKLLIYAASTLDSGVPSRFSGSGSGTDFTLTISSLQPEDFATYYCLQYDSYPYTFGQGTKLEIKRTVAAPSVFIFPPSDEQLKSGTASVVCLLNNFYPREAKVQWKVDNALQSGNSQESVTEQDSKDSTYSLSSTLTLSKADYEKHKVYACEVTHQGLSSPVTKSFNRGEC | 0.562 nM | 0.0049 s⁻¹ | 8.72e+06 M⁻¹ s⁻¹ | 
8 | Sh24C05-46 (antibody, human IgG1, kappa, V domains shown, Humanized, human IgG1/kappa) VH: EVQLLESGGGLVQPGGSLRLSCAASGFTFSDYAMSWVRQAPGKGLEWVSTISDGGTYTYYPDNVKGRFTISRDNSKNTLYLQMNSLRAEDTAVYYCAREWGDYDGFDYWGQGTLVTVSS VL: DIQMTQSPSSLSASVGDRVTITCRASQEISGYLSWYQQKPGKAPKLLIYAASTLDSGVPSRFSGSGSGTDFTLTISSLQPEDFATYYCLQYDSYPYTFGQGTKLEIKR | 0.551 nM | 0.0044 s⁻¹ | 7.99e+06 M⁻¹ s⁻¹ | 

Now from value to binder, other results behind:

Row | Kd [4] | koff [4] | kon [4] | Binder | also measured
9 | 0.178 nM | 0.000448 s⁻¹ | 2.52e+06 M⁻¹ s⁻¹ | Sh24C05-1 (antibody, human IgG1, kappa, Chimeric: mouse 24C05 variable regions, human IgG1/kappa constant regions; also called Chimeric 24C05) heavy: not shown light: DIQMTQSPSSLSASLGERVSLTCRASQEISGYLSWLQQKPDGTIKRLIYAASTLDSGVPKRFSGSRSGSDYSLTIGSLESEDLADYYCLQYDSYPYTFGGGTKLEIKRTVAAPSVFIFPPSDEQLKSGTASVVCLLNNFYPREAKVQWKVDNALQSGNSQESVTEQDSKDSTYSLSSTLTLSKADYEKHKVYACEVTHQGLSSPVTKSFNRGEC | Kd [5]: 0.14 nM; koff [5]: 0.00044 s⁻¹; kon [5]: 3.5e+06 M⁻¹ s⁻¹
10 | 0.175 nM | 0.000459 s⁻¹ | 2.63e+06 M⁻¹ s⁻¹ | Sh24C05-25 (antibody, human IgG1, kappa, V domains shown, Humanized, human IgG1/kappa) VH: QVQLVESGGGLVKPGGSLRLSCAASGFTFSDYAMSWIRQAPGKGLEWVSTISDGGTYTYYPDNVKGRFTISRDNAKNSLYLQMNSLRAEDTAVYYCAREWGDYDGFDYWGQGTLVTVSS VL: DIQMTQSPSSLSASVGDRVTITCRASQEISGYLSWFQQKPGKAPKSLIYAASTLDSGVPSRFSGSGSGTDFTLTISSLQPEDFATYYCLQYDSYPYTFGQGTKLEIKR | Kd [5]: 0.13 nM; koff [5]: 0.0005 s⁻¹; kon [5]: 4e+06 M⁻¹ s⁻¹
11 | 0.15 nM | 0.000417 s⁻¹ | 2.79e+06 M⁻¹ s⁻¹ | Sh24C05-17 (antibody, human IgG1, kappa, V domains shown, Humanized, human IgG1/kappa) VH: QVQLVESGGGVVQPGRSLRLSCAASGFTFSDYAMSWVRQAPGKGLEWVATISDGGTYTYYPDNVKGRFTISRDNSKNTLYLQMSSLRAEDTAVYYCAREWGDYDGFDYWGQGTLVTVSS VL: DIQMTQSPSSLSASVGDRVTITCRASQEISGYLSWLQQKPGGAIKRLIYAASTLDSGVPSRFSGSGSGSDYTLTISSLQPEDFATYYCLQYDSYPYTFGQGTKLEIKR | 
12 | 0.0865 nM | 0.000292 s⁻¹ | 3.47e+06 M⁻¹ s⁻¹ | Sh24C05-31 (antibody, human IgG1, kappa, V domains shown, Humanized, human IgG1/kappa) VH: QVQLVESGGGLVKPGGSLRLSCAASGFTFSDYAMSWIRQAPGKGLEWVSTISDGGTYTYYPDNVKGRFTISRDNAKNSLYLQMNSLRAEDTAVYYCAREWGDYDGFDYWGQGTLVTVSS VL: DIQMTQSPSSLSASVGDRVTITCRASQEISGYLSWYQQKPGKAPKRLIYAASTLDSGVPSRFSGSGSGTEFTLTISSLQPEDFATYYCLQYDSYPYTFGQGTKLEIKR | Kd [5]: 0.063 nM; koff [5]: 0.00028 s⁻¹; kon [5]: 4.7e+06 M⁻¹ s⁻¹
